Test results as given in CN112812179A (UNIV BEIJING, dated 2021).
One block for each binder: values may come before it.

What was measured:
[1] = target: T1, 人CMTM6氨基酸序列2到24位氨基酸的多肽 (CMTM6 N2-24) (human, UniProt Q9NX76 2-24, C末端耦联BSA (the BSA conjugate is the one made for ELISA, paragraph 46; the KLH conjugate was used for immunisation)); test: indirect ELISA, serially diluted peptide coated on the plate
T1 construct: range 2-24; also called CMTM6 N2-24多肽; BSA耦联的CMTM6 N2-24多肽
T1 peptide (looked up): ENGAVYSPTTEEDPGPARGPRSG

[2] = target: T2, 人CMTM6 (endogenous, in 786-O cells and colon cancer tissue) (human, UniProt Q9NX76 1-183); test: Western blot of 786-O lysates, compared with CMTM6 knockout clones 2E7 and 4D10
T2 construct: whole, on cells
T2 sequence (looked up): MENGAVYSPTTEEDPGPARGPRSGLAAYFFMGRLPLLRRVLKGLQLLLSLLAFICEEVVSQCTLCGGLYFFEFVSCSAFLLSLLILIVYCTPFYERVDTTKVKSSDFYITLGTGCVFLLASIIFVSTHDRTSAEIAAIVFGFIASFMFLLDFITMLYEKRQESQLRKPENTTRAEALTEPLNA

[3] = target: T3, Flag-CMTM6 (overexpressed in HEK293T cells) (human, UniProt Q9NX76 1-183); test: Western blot of HEK293T lysates, 1 ug/mL primary antibody; empty-vector control gave no signal
T3 construct: Detected in denatured cell lysate by Western blot; the band is 26 kD; also called Flag-CMTM6融合表达载体; not shown: Flag tag
T3 sequence (looked up): T2 sequence (looked up)

binding result [1]: binds
B1: 1-19重链(HC)和轻链(LC)超表达上清 (recombinant 1-19 from HEK293T cells co-transfected with heavy and light chain plasmids) (antibody, V domains shown)
VH: EVQLQQSGAELVKPGASVKLSCASSGFNIKDTYIHWVKRRPEQGLEWIGRIDPANGKTYFHSNFQGKATITADTSSNTAHLELSSLTSEDTAVYYCAFLYDGPIDYWGQGTSVTVSS
VL: DVLMTQTPLSLPVSLGDQASISCRSSQSIVYRDGNTYLDWYLQKPGQSPKLLIYKVSNRFSGVPDRFSGSGSGTDFTLKISRVEAEDLGVYYCFQGSLFPYTFGGGTKLEI
notes: Full-length light and heavy chains amplified from 1-19 hybridoma cDNA, cloned into pcDNA3.1 and expressed in HEK293T; see the note of m1 for the printed FR/CDR pieces; also called 共转染本发明抗体1-19重轻链质粒的HEK293T细胞上清

binding result [2]: binds | binding result [3]: binds
B2: 鼠抗人CMTM6单克隆抗体1-19 (purified from hybridoma supernatant) (antibody, V domains shown)
VH: B1 VH
VL: B1 VL
notes: also called 1-19mAb; 本发明抗体1-19
